PMC3156789 (Biochemistry, 2011)

Key:
CHK = type: biochemical; conditions: in vitro
[1] = aqueous solution; size exclusion chromatography and sedimentation velocity; ref [24]; cited from earlier work
c-Src = conditions: read-out: dissociation constant (KD) of the CSK/c-Src complex; surface plasmon resonance; ref [9] Levinson et al.; cited from earlier work

B1: 14-3-3β: recombinant 14-3-3β (protein, UniProt P31946 1-246, looked up)
14-3-3 protein beta/alpha: MTMDKSELVQKAKLAEQAERYDDMAAAMKAVTEQGHELSNEERNLLSVAYKNVVGARRSSWRVISSIEQKTERNEKKQQMGKEYREKIEAELQDICNDVLELLDKYLIPNATQPESKVFYLKMKGDYFRYLSEVASGDNKQTTVSNSQQAYQEAFEISKKEMQPTHPIRLGLALNFSVFYYEILNSPEKACSLAKTAFDEAIAELDTLNEESYKDSTLIMQLLRDNLTLWTSENQGDEGDAGEGEN
level of CHK phosphorylation (CHK; purified recombinant proteins): negligible level | direct phosphorylation by CHK (CHK; purified recombinant proteins (SFig. 4A)): CHK could directly phosphorylate all three protein substrates in vitro

B2: CHK-His6: GSGS linker and a polyhistidine tag attached to the C-terminus of the rat CHK sequence (protein)
chain: MPTQRWAPGTQCMTKCENSRPKPGELAFRKGDMVTILEACEDKSWYRAKHHSSGQEGLLAAAALRQREALSTDPKLSLMPWFHGKISGQEAIQQLQPPEDGLFLVRESARHPGDYVLCVSFGRDVIHYRVLHRDGHLTIDEAVCFCNLMDMVEHYTRDKGAICTKLVKPKRKQGAKSAEEELAKAGWLLDLQHLTLGAQIGEGEFGAVLQGEYLGQKVAVKNIKCDVTAQAFLDETAVMTKLQHRNLVRLLGVILHHGLYIVMEHVSKGNLVNFLRTRGRALVSTSQLLQFALHVAEGMEYLESKKLVHRDLAARNILVSEDLVAKVSDFGLAKAELRKGLDSSRLPVKWTAPEALKNGRFSSKSDVWSFGVLLWEVFSYGRAPYPKMSLKEVSEAVEKGYRMEPPDSCPGPVHTLMGSCWEAEPSRRPPFRKIVEKLGRELRSVGVAAPAGGQEAEGSAPTRSQDP
modifications: left off: … (GSGS linker and polyhistidine tag), C-terminal, kept
oligomeric state [1]: monomeric in aqueous solution

B3: CSK: C-terminal Src kinase (protein, UniProt P41240 2-450, looked up)
Tyrosine-protein kinase CSK: SAIQAAWPSGTECIAKYNFHGTAEQDLPFCKGDVLTIVAVTKDPNWYKAKNKVGREGIIPANYVQKREGVKAGTKLSLMPWFHGKITREQAERLLYPPETGLFLVRESTNYPGDYTLCVSCDGKVEHYRIMYHASKLSIDEEVYFENLMQLVEHYTSDADGLCTRLIKPKVMEGTVAAQDEFYRSGWALNMKELKLLQTIGKGEFGDVMLGDYRGNKVAVKCIKNDATAQAFLAEASVMTQLRHSNLVQLLGVIVEEKGGLYIVTEYMAKGSLVDYLRSRGRSVLGGDCLLKFSLDVCEAMEYLEGNNFVHRDLAARNVLVSEDNVAKVSDFGLTKEASSTQDTGKLPVKWTAPEALREKKFSTKSDVWSFGILLWEIYSFGRVPYPRIPLKDVVPRVEKGYKMDAPDGCPPAVYEVMKNCWHLDAAMRPSFLQLREQLEHIKTHELHL
Kd (c-Src): 4 to 64 µM
